Data set [1] concerns the molecule itself. Put plainly: far-Western, overlay or dot blot; 2 μg of each protein spotted on nitrocellulose, overlaid with 100 μg/ml aldolase with 0.1 mM GSNO, 5 mM GSSG, 1 mM diamide + 1 mM GSH or 0.5 mM H2O2 + 0.5 mM GSH, 1 h room temperature; glutaraldehyde cross-linking; anti-aldolase antibody.
In data set [2] the target is T1, recombinant GAPDH GapC1 (At3g04120) (A. thaliana, UniProt P25858 1-338).
T1 construct: cytosolic NAD-dependent glyceraldehyde-3-phosphate dehydrogenase GapC1, A. thaliana, At3g04120; Redox reagents (diamide + GSH, GSSG, GSNO, H2O2 + GSH, DTT) were added to the mixtures; the redox state is told by the assay; source: recombinant, purified
T1 sequence (P25858 whole entry): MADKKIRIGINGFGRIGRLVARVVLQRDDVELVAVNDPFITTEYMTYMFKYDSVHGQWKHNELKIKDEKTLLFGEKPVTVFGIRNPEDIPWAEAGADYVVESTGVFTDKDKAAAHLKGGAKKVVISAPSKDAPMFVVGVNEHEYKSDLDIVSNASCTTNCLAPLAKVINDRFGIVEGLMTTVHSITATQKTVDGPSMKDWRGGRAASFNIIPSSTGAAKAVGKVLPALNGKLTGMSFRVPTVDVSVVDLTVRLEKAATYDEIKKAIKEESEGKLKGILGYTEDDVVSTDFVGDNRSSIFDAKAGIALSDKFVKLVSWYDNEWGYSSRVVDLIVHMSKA
Put plainly: far-Western, overlay or dot blot; GapC and BSA spotted on nitrocellulose, overlaid with VDAC3 in liposomes, without DTT (oxidized GapC); anti-VDAC1 serum, ECL. The settings on record: both partners purified.

B1: recombinant cytosolic fructose 1,6-bisphosphate aldolase (FBA6, At2g36460) (enzyme, A. thaliana, UniProt Q9SJQ9 1-358, looked up)
chain: MSSFTSKFADELIANAAYIGTPGKGILAADESTGTIGKRLASINVENVESNRRALRELLFTTPGALPCLSGVILFEETLYQKSSDGTPFVDMLKSAGVLPGIKVDKGTVELAGTNGETTTQGLDGLGDRCKKYYEAGARFAKWRAVLKIGVNEPSQLAIHENAYGLARYAVICQENGLVPIVEPEILVDGSHDIQKCAAVTERVLAACYKALSDHHVLLEGTLLKPNMVTPGSESAKVAPEVIAEHTVRALQRTVPAAVPAIVFLSGGQSEEEATRNLNAMNQLKTKKPWSLSFSFGRALQQSTLKTWGGKEENVKKAQEAFLVRCKANSEATLGAYKGDAKLGEGAAESLHVKDYKY
notes: cytosolic fructose 1,6-bisphosphate aldolase FBA6, A. thaliana, At2g36460; Redox reagents were added to the mixtures; no modified residues are named; the redox state is told by the assay; source: recombinant, purified
In the case of B1, the binding result in data set [1] is “binds”.

B2: VDAC3 (At5g15090) reconstituted into liposomes (natural protein, A. thaliana, UniProt Q9SMX3 1-274, looked up)
chain: MVKGPGLYTEIGKKARDLLYRDYQGDQKFSVTTYSSTGVAITTTGTNKGSLFLGDVATQVKNNNFTADVKVSTDSSLLTTLTFDEPAPGLKVIVQAKLPDHKSGKAEVQYFHDYAGISTSVGFTATPIVNFSGVVGTNGLSLGTDVAYNTESGNFKHFNAGFNFTKDDLTASLILNDKGEKLNASYYQIVSPSTVVGAEISHNFTTKENAITVGTQHALDPLTTVKARVNNAGVANALIQHEWRPKSFFTVSGEVDSKAIDKSAKVGIALALKP
notes: voltage-dependent anion channel VDAC3, A. thaliana, At5g15090; also called VDAC3 in liposomes; porin; source: cell-free system (RTS 100 Wheat Germ CECF), separated from the reaction mix via reconstitution into liposomes
With B2, the binding result in data set [2] is on record as “binds”.

The record behind these values is publication PMC3540817, “Transfer of a Redox-Signal through the Cytosol by Redox-Dependent Microcompartmentation of Glycolytic Enzymes at Mitochondria and Actin Cytoskeleton” (Frontiers in Plant Science, 2012).
